Measurements from publication PMC9561678.

Target: phosphorylated JAK2 (UniProt O60674)
Assay: co-immunoprecipitation (IP p-JAK2, IB c-Mpl) with densitometry
Conditions: HEK293T cells; 20 ng/mL TPO stimulation; parent: est. 1.3; read off a plot

Chain of UniProt O60674 (O60674 whole entry): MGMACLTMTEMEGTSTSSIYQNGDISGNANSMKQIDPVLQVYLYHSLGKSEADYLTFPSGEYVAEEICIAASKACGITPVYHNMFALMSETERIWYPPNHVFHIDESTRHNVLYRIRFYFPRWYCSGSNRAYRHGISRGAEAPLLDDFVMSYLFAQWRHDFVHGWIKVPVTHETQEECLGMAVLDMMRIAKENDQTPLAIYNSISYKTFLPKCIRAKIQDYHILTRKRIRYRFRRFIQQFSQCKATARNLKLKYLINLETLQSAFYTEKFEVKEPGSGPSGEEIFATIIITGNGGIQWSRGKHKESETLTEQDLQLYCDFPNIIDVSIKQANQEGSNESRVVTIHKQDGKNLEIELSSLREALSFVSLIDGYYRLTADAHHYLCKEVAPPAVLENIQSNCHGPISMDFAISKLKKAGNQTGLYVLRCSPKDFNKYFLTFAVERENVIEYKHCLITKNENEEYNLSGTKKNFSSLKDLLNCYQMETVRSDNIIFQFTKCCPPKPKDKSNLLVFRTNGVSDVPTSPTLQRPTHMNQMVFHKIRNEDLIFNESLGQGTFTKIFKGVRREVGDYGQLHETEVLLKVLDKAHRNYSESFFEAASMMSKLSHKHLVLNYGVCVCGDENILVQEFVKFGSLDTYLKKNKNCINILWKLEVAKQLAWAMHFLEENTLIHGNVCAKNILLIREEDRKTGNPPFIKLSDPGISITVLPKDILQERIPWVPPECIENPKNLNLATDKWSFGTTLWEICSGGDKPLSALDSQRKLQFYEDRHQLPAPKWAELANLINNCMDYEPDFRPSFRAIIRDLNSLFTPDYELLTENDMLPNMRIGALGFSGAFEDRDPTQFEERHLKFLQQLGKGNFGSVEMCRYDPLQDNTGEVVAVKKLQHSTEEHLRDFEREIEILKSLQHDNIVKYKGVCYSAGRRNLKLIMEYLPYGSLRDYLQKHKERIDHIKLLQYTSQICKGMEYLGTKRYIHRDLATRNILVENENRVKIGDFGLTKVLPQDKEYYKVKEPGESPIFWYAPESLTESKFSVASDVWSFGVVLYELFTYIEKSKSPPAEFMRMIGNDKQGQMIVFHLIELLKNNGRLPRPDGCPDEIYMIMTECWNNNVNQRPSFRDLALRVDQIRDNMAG

response	Substance
0.54	c-Mpl-del (c-Mpl alternative splicing isoform with a 24 amino acid deletion in the extracellular region) Y567F
0.44	c-Mpl-del (c-Mpl alternative splicing isoform with a 24 amino acid deletion in the extracellular region) Y602F
0.18	c-Mpl-del (c-Mpl alternative splicing isoform with a 24 amino acid deletion in the extracellular region) Y607F
